Reference: PMC2114114

Target: Rat secretory component (rat (endogenous in rat liver)) (UniProt P15083)
Assay: co-IP

Chain of UniProt P15083 (P15083 19-611): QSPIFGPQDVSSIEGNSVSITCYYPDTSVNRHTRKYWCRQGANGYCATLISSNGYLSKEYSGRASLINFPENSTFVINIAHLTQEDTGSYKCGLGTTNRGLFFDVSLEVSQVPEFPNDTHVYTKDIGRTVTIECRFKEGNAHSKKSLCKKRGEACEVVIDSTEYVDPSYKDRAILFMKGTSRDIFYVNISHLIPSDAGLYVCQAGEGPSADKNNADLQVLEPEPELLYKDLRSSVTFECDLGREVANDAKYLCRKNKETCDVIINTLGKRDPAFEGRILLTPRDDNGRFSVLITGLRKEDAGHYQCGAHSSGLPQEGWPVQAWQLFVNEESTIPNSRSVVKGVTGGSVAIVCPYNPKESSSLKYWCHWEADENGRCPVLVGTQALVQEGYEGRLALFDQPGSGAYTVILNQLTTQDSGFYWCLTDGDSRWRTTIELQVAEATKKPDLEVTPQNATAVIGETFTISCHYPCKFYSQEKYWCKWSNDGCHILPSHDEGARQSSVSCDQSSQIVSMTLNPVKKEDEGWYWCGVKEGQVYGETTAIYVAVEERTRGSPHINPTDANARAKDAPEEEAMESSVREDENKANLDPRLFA

percent bound to anti-rat SC immunoadsorbent: 92.4%
Substance: Human monoclonal polymeric IgA (IgA1 myeloma protein) (from UniProt P01591 23-159) (antibody)
